Columns and labels:
[1] = NicA2 stability assay in HEPES buffer at 37° C.; conditions: HEPES buffer pH=7.4
Procedure: Four μM nicotine and 40 nM NicA2 were prepared in HEPES buffer and stored at 37° C. Upon sitting for 0, 1, 3, 4, 5, 8, 12, 16, 20, or 25 days, 100 μL of each solution was extracted, mixed, incubated, quenched, analyzed as detailed, vide supra.
To test for these metrics, NicA2 was incubated at 37° C. in HEPES buffer and enzyme activity was examined at different time points.

[2] = Temperature curve of NicA2; format: biochemical; conditions: HEPES buffer, 20-95° C.
Procedure: 100 μL of each solution was mixed, incubated, quenched and then analyzed as detailed, vide supra.
The effect of higher temperatures on the enzyme's stability was also examined.

[3] = In vitro NicA2 activity in rat serum at physiologically relevant nicotine levels; format: biochemical; conditions: for % Reduction in nicotine levels in vitro: rat serum, 37° C.
Procedure: NicA2 was diluted in rat serum (controls: serum without NicA2) to give a final concentration of 400 nM, 200 nM, and 20 nM. Nicotine was diluted in 50 mM HEPES pH 7.5 to give final amounts of 640, […], 80, 40, 20, 10, 5 and 2.5 ng (spanning a nicotine concentration range of 3.2 μg/ml to 12.5 ng/ml). The diluted NicA2 in serum and diluted nicotine were mixed 1:1 after pre-equilibration at 37° C. and 5 min (in 200 μl total). After 4 minutes or 20 minutes, reactions were diluted and quenched by addition of 800 μl H2O+500 μl 2M NaOH/0.2M NH4OH. At the highest NicA2 concentration (400 nM) initial plasma nicotine levels of 25 and 50 ng/ml dropped to <2 ng/ml at 4 min. (Table A).

[4] = NicA2 degradation of nicotine in mouse serum; format: biochemical; conditions: 125, 250, 500 nM nicotine, 20 nM NicA2, mouse serum, 30 min
Procedure: FIGS. 5A-5D illustrate the stability of the NicA2 enzyme. FIG. 5A graphically illustrates the thermal stability of the NicA2 enzyme as a function of temperature. FIG. 5B illustrates the stability of NicA2 at 37° C. in HEPES buffer (pH=7.4) as a function of time. […] FIG. 5C illustrates the stability of NicA2 in mouse serum at 37° C. over time. FIG. 5D graphically illustrates the ability of NicA2 to degrade nicotine in mouse serum. Concentrations of 125, 250, 500 nM nicotine with and without enzyme (20 nM NicA2) were incubated in serum for 30 min. Residual nicotine remaining after this time period was measured.
As a means to test NicA2's efficiency “in vivo”, nicotine was doped with or without enzyme in serum (FIG. 5D). […] To further substantiate a conclusion that NicA2 can remove nicotine in vivo, NicA2's catabolism of nicotine was simulated based upon foregoing kinetic constants that were determined. NicA2 specificity constant is approximately 10^5 M^−1s^−1 and while clearly far from a perfect enzyme (10^8-10^9 M^−1s^−1).

B1: NicA2: flavin-containing nicotine-degrading enzyme of Pseudomonas putida S16, amino acid sequence SEQ ID NO:1 (protein)
chain: MSDKTKTNEGFSRRSFIGSAAVVTAGVAGLGAIDAASATQKTNRASTVKGGFDYDVVVVGGGFAGATAARECGLQGYRTLLLEARSRLGGRTFTSRFAGQEIEFGGAWVHWLQPHVWAEMQRYGLGVVEDPLTNLDKTLIMYNDGSVESISPDEFGKNIRIAFEKLCHDAWEVFPRPHEPMFTERARELDKSSVLDRIKTLGLSRLQQAQINSYMALYAGETTDKFGLPGVLKLFACGGWNYDAFMDTETHYRIQGGTIGLINAMLTDSGAEVRMSVPVTAVEQVNGGVKIKTDDDEIITAGVVVMTVPLNTYKHIGFTPALSKGKQRFIKEGQLSKGAKLYVHVKQNLGRVFAFADEQQPLNWVQTHDYSDELGTILSITIARKETIDVNDRDAVTREVQKMFPGVEVLGTAAYDWTADPFSLGAWAAYGVGQLSRLKDLQAAEGRILFAGAETSNGWHANIDGAVESGLRAGREVKQLLS
modifications: His tag
- stability and activity in HEPES buffer [1]: ≥ 3 weeks
- v0 over the duration of the study [1]: remained virtually constant
- optimum temperature [2]: 70 °C
- % Reduction in nicotine levels in vitro ([3]; 20 nM NicA2, nicotine 25 ng/ml): 17%
- % Reduction in nicotine levels in vitro ([3]; 20 nM NicA2, nicotine 50 ng/ml): 8%
- % Reduction in nicotine levels in vitro ([3]; 20 nM NicA2, nicotine 100 ng/ml): 4%
- % Reduction in nicotine levels in vitro ([3]; 200 nM NicA2, nicotine 25 ng/ml): 100%
- % Reduction in nicotine levels in vitro ([3]; 200 nM NicA2, nicotine 50 ng/ml): 100%
- % Reduction in nicotine levels in vitro ([3]; 200 nM NicA2, nicotine 100 ng/ml): 72%
- nicotine level remaining ([3]; 400 nM NicA2, initial nicotine 25 and 50 ng/ml, at 4 min): < 2 ng/mL
- % Reduction in nicotine levels in vitro ([3]; 400 nM NicA2, nicotine 25 ng/ml): 100%
- % Reduction in nicotine levels in vitro ([3]; 400 nM NicA2, nicotine 50 ng/ml): 100%
- % Reduction in nicotine levels in vitro ([3]; 400 nM NicA2, nicotine 100 ng/ml): 94%
- nicotine consumed in serum [4]: consumed all nicotine

From patent US20190015484A1, “NICOTINE-DEGRADING ENZYMES FOR TREATING NICOTINE ADDICTION AND NICOTINE POISONING” (priority 2015, published 2019)
